Measured values reported in the Human Domainome abundance scans (Beltran et al. 2025).

B1: Gamma-crystallin D, residues 90 to 170; numbered along this chain, P07320 (parent)
chain: IRLYEREDYRGQMIEFTEDCSCLQDRFRFNEIHSLNVLEGSWVLYELSNYRGRQYLLMPGDYRRYQDWGATNARVGSLRRV
B2: Double-stranded RNA-specific adenosine deaminase, residues 296 to 358; numbered along this chain, P55265 (parent)
chain: MAEIKEKICDYLFNVSDSSALNLAKNIGLTKARDINAVLIDMERQGDVYRQGTTPPIWHLTDK

Variants of: B1
Experiment: abundance fitness (aPCA) (normalised: wild type 0, dead -1); higher = more abundant; growth selection in yeast, the domain comes from the species named
Settings: Homo sapiens

Abundance fitness: each site, then its substitutions
R63: P -0.012, A 0.024, I 0.113, Q 0.072, K 0.061, S -0.037, E 0.09, L 0.088, C 0.097, M 0.132, N -0.079, T 0.039, W 0.031, D 0.129, F 0.004
L78: H -0.426, K -1.12, S -0.38, E -0.873, M 0.126, R -0.893, G -0.565, I 0.061, P -0.708, W -0.011, Q -0.908, C 0.157
G60: Q 0.001, W -0.133, R -0.04, F -0.188, L -0.197, S 0.064, N -0.167, H -0.225, P -0.702, K 0.029, M -0.128, A -0.038, D -0.08, E 0.155, Y -0.176, T -0.122
Q66: D -0.14, M -0.048, K 0.269, S 0.018, V -0.038, F -0.004, C -0.067, W 0.018, H 0.108, E -0.022, P -0.016, R -0.06, G 0.038, T -0.073, N -0.074
R74: A -0.015, D 0.018, Q -0.02, P 0.005, F -0.023, M -0.224, S -0.011, N 0.098, K -0.134, W -0.029, E 0.132, Y -0.092, G -0.011, V 0.028, C 0.012, L -0.002
A73: T 0.126, V 0.066, F -0.173, N 0.05, W 0.123, Y 0.003, D 0.104, H 0.151, Q 0.09, G 0.004, P -0.175, E -0.012, R 0.121, S -0.023, L 0.067, C 0.005, M 0.156
R79: E 0.113, A 0.096, I -0.175, C -0.355, N -0.316, F -0.214, G -0.032, P -0.93, T -0.117, K -0.048, Y -0.153, W -0.36, S 0.068, D -0.552, M 0.086, Q 0.049
G69: V 0.105, N -0.011, R 0.141, Y 0.037, W 0.045, M 0.24, T 0.016, P -0.164, S -0.019, F -0.008, A 0.038, I -0.057, L 0.101, E 0.193, Q 0.082, D -0.105, C 0.084
R64: W 0.095, E -0.226, Q -0.031, M -0.11, P -0.423, C -0.141, A -0.019, V -0.044, T 0.063, D 0.167, Y 0.035, N 0.159, G -0.017, F 0.04, K -0.287
P59: Q 0.05, S -0.007, Y -0.222, V -0.099, W -0.083, R -0.088
Y65: I 0.053, H 0.099, G 0.159, F -0.174, P 0.051, L 0.093, Q -0.028, C -0.144, S 0.041, W 0.005, V -0.047, M 0.089, T -0.076, K -0.113, A -0.093, N 0.096, E 0.192, D 0.044
G76: A 0.011, D -0.068, W -0.441, E 0.008, S -0.027, K -0.112, C -0.287, H 0.11, R 0.024, M 0.111, N -0.125, Y -0.221, T -0.109
V75: Q -0.145, G -0.024, H -0.742, A -0.017, P -0.011, C -0.065, F -0.037, D -0.988, N -0.205, I -0.201, M -0.024, W -0.131, T -0.206, Y -0.001, R -0.863, E -1.04, K -0.683
W68: V 0.087, Y -0.163, A 0.043, F 0.194, L 0.164, D 0.062, T 0.149, I 0.116, R 0.093, K 0.16, M 0.15, Q -0.355, N -0.117, P -0.067
D61: Q -0.038, M -0.008, V -0.07, R -0.109, W -0.237, T -0.024, K -0.096, I -0.332, H -0.25, F -0.094, G 0.004, N -0.016, L -0.093, S -0.027, E 0.043
A70: Q -0.032, E 0.165, R 0.095, I 0.024, C 0.074, D 0.18, N 0.136, F 0.048, V 0.044, W 0.032, L 0.045, Y -0.033, H 0.045, M 0.109, P 0.047, G -0.047, S -0.025
N72: D -0.016, A -0.08, C -0.078, K -0.065, S 0.051, P 0.03, R 0.026, M 0.131, G -0.001, L 0.149, Q 0.03, W 0.233, H -0.083, Y 0.173, I 0.21, F 0.118, V 0.065
T71: Y -0.201, K -0.003, L 0.04, A 0.029, F -0.044, I 0.043, G -0.014, V -0.103, P -0.049, H 0.05, W 0.001, M -0.125, N 0.054, C 0.008
S77: D -1.03, G -0.367, P -1.04, R -1.01, F -0.879, V -1.13, E -0.868, C -0.28, L -0.819, W -1.01, Q -1.05, K -0.654, A -0.168, T -0.921
D67: Q -0.08, W -0.064, Y -0.125, V -0.043, F -0.062, S -0.005, A -0.101, P -0.19, R -0.208, C -0.148, E 0.049, I -0.155, H -0.034, L -0.084, M 0.047
V81: I -0.054, A -0.093, L 0.081
Y62: K 0.11, I -0.061, F -0.147, V 0.041, M 0.096, A 0.153, G -0.242, C 0.264, P -0.919, E -0.401, T -0.251, Q -0.301, R 0.229, L 0.178, N -0.125, W 0.026, D -0.904, H -0.076, S 0.016

Variants of: B2
Experiment: as above
Settings: Homo sapiens

Abundance fitness of substitutions, site by site:
R33: N 0.195
D41: R -0.73, H -0.754, T -0.445
G28: Q -0.606
D34: G -0.592
P55: F -0.396
E3: T -0.159
Y49: R 0.007
L29: W -0.633
Q45: I -0.495
W58: S -0.254
M42: S -0.613
